Experimental data reported in patent US7291492.

Columns and labels:
[1] = target: [3H]acetyl-labelled peptide corresponding to the N-Terminus of Histone H3, P68431
[2] = target: [3H]acetyl-labelled peptide corresponding to the N-Terminus of histone H4, P62805

B1: N-Terminus flag tagged HDAC9 (protein)
chain: MHSMISSVDVKSEVPVGLEPISPLDLRTDLRMMMPVVDPVVREKQLQQELLLIQQQQQIQKQLLIAEFQKQHENLTRQHQAQLQEHIKLQQELLAIKQQQELLEKEQKLEQQRQEQEVERHRREQQLPPLRGKDRGRERAVASTEVKQKLQEFLLSKSATKDTPTNGKNHSVSRHPKLWYTAAHHTSLDQSSPPLSGTSPSYKYTLPGAQDAKDDFPLRKTASEPNLKVRSRLKQKVAERRSSPLLRRKDGNVVTSFKKRMFEVTESSVSSSSPGSGPSSPNNGPTGSVTENETSVLPPTPHAEQMVSQQRILIHEDSMNLLSLYTSPSLPNITLGLPAVPSQLNASNSLKEKQKCETQTLRQGVPLPGQYGGSIPASSSHPHVTLEGKPPNSSHQALLQHLLLKEQMRQQKLLVAGGVPLHPQSPLATKERISPGIRGTHKLPRHRPLNRTQSAPLPQSTLAQLVIQQQHQQFLEKQKQYQQQIHMNKLLSKSIEQLKQPGSHLEEAEEELQGDQAMQEDRAPSSGNSTRSDSSACVDDTLGQVGAVKVKEEPVDSDEDAQIQEMESGEQAAFMQQPFLEPTHTRALSVRQAPLAAVGMDGLEKHRLVSRTHSSPAASVLPHPAMDRPLQPGSATGIAYDPLMLKHQCVCGNSTTHPEHAGRIQSIWSRLQETGLLNKCERIQGRKASLEEIQLVHSEHHSLLYGTNPLDGQKLDPRILLGDDSQKFFSSLPCGGLGVDSDTIWNELRSSGAARMAVGCVIELASKVASGELKNGFAVVRPPGHHAEESTAMGFCFFNSVAITAKYLRDQLNISKILIVDLDVHHGNGTQQAFYADPSILYISLHRYDEGNFFPGSGAPNEVGTGLGEGYNINIAWTGGLDPPMGDVEYLEAFRTIVKPVAKEFDPDMVLVSAGFDALEGHTPPLGGYKVTAKCFGHLTKQLMTLADGRVVLALEGGHDLTAICDASEACVNALLGNELEPLAEDILHQSPNMNAVISLQKIIEIQSKYWKSVRMVAVPRGCALAGAQLQEETETVSALASLTVDVEQPFAQEDSRTAGEPMEEEPAL
histone deacetylase activity (release of [3H]acetate from the peptide) [1]: Higher activities of HDAC9 have been detected towards peptide substrates derived from histone H3 than from histone H4
histone deacetylase activity (release of [3H]acetate from the peptide), relative to HDAC1 [2]: HDAC9 contains about 25% activity of HDAC1
histone deacetylase activity (release of [3H]acetate from the peptide), relative to HDACs 4 and 5 [2]: 50% activity of HDACs 4 and 5
